Drawing on paper PMC4395295, this text covers microtubule gliding velocity of surface-immobilised Z585mAG co-purified with C120 (180 nm/s for Z585mAG alone) and stoichiometry N (C120 per ZEN-4 fragment) for one substance.

Assay [1] concerns the target ZEN-4 1-585mAG (C. elegans).
The target of assay [2] is VenusZ435-555 (ZEN-4 neck and coiled coil with the motor domain replaced by Venus) (C. elegans). Kind of assay: SDS-PAGE and densitometry of the purified complex; band intensities of the ZEN-4 and CYK-4 fragments, staining assumed proportional to molecular weight.
Sequence of VenusZ435-555 (ZEN-4 neck and coiled coil with the motor domain replaced by Venus) (C. elegans) (main, as listed by the source): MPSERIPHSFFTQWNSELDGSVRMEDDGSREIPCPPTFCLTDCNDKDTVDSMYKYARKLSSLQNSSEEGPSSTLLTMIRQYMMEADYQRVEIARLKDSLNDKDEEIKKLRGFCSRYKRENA

Substance CYK-4 1-120 (domain or fragment) had a microtubule gliding velocity of surface-immobilised Z585mAG co-purified with C120 (180 nm/s for Z585mAG alone) in assay [1] of 30 nm/s. In addition, in assay [2], the stoichiometry N (C120 per ZEN-4 fragment) turned out to be 0.94.
